B1: Pistol ribozyme (parent)
chain: GGGUCGUUGUUCCAUAAUCGCGUGGAUAUGGCACGCAAGUUUCUACCGGGCACCGUAAAUGUCCGACUGGAGCCGUUCGGGCGGCUAUAAACAGACCUCAGGCCCGAAGCGUGGCGGCACCUGCCGCCGGUGGUAAAAAAGAUCGGAAGAGCACACGUCU

Variants of: B1
Experiment: aptazyme ON/OFF ratio, guanine; higher = stronger switching; co-transcriptional cleavage with and without guanine

Row | Variant | aptazyme ON/OFF ratio
1 | U7A G9U U10G U11C C12G C13U | 1.31
2 | U7A G9U U10G U11C C12G C13A | 1.15
3 | U7A G9U U10G U11C C12G C13G | 1.17
4 | U7A U8A G9A C12A | 1.46
5 | U7A U8A G9A C12G | 1.4
6 | U7A U8A G9A C12U | 1.32
7 | U7A G9U U10G C12A C13A | 1.16
8 | U7A G9U U10G C12A C13G | 1.13
9 | U7A G9U U10G C12A C13U | 1.3
10 | U7A G9U U11A C12G C13A | 1.08
11 | U7A G9U U11A C12G C13G | 1.12
12 | U7A G9U U11A C12G C13U | 1.25
13 | U7A G9C U11C C12A | 1.09
14 | U7A G9C U11C C12G | 1.06
15 | U7A G9C U11C C12U | 1.09
16 | U7A G9U U10C U11G C12G | 1.09
17 | U7A G9U U10C U11G C12U | 1.34
18 | U7A G9U U10C U11G C12A | 1.02
19 | U7A G9U U10C U11A C13U | 1.1
20 | U7A G9U U10C U11A C13A | 1.14
21 | U7A G9U U10C U11A C13G | 1.1

Row | Variant | aptazyme ON/OFF ratio
22 | U7A G9C U11G C13A | 1.13
23 | U7A G9C U11G C13G | 1.07
24 | U7A G9C U11G C13U | 1.25
25 | U7A G9U U10G U11C C12A | 1.21
26 | U7A G9U U10G U11C C12G | 1.21
27 | U7A G9U U10G U11C C12U | 1.06
28 | U7A G9U U10C C13G | 1.02
29 | U7A G9U U10C C13A | 1.09
30 | U7A G9U U10C C13U | 1.18
31 | U7A G9U U10A U11G C12G C13G | 1.2
32 | U7A G9U U10A U11G C12G C13U | 1.18
33 | U7A G9U U10A U11G C12G C13A | 1.16
34 | U7A U8A C12A | 1.76
35 | U7A U8A C12G | 1.41
36 | U7A U8A C12U | 1.59
37 | U7A G9U U10A U11G C12U C13A | 1.16
38 | U7A G9U U10A U11G C12U C13U | 1.22
39 | U7A G9U U10A U11G C12U C13G | 1.13
40 | U7A G9C U11G C12A C13A | 1.1
41 | U7A G9C U11G C12A C13U | 1.29
42 | U7A G9C U11G C12A C13G | 1.14

Row | Variant | aptazyme ON/OFF ratio
43 | U7A G9U U10G C12G C13U | 1.25
44 | U7A G9U U10G C12G C13A | 1.18
45 | U7A G9U U10G C12G C13G | 1.25
46 | U7A G9U U10C C12U | 1.22
47 | U7A G9U U10C C12A | 1.14
48 | U7A G9U U10C C12G | 1.29
49 | U7A G9U U11G C12G | 1.15
50 | U7A G9U U11G C12A | 1.11
51 | U7A G9U U11G C12U | 1.52
52 | U7A G9U U11G C13A | 1.15
53 | U7A G9U U11G C13U | 1.31
54 | U7A G9U U11G C13G | 1.04
55 | U7A G9U U10C U11C C12U C13A | 1.06
56 | U7A G9U U10C U11C C12U C13U | 1.07
57 | U7A G9U U10C U11C C12U C13G | 1.02
58 | U7A G9U U10A U11C C12G C13U | 1.13
59 | U7A G9U U10A U11C C12G C13A | 1.09
60 | U7A G9U U10A U11C C12G C13G | 1.06
61 | U7A U8A G9A C12G C13A | 1.09
62 | U7A U8A G9A C12G C13U | 1.14
63 | U7A U8A G9A C12G C13G | 1.12

Row | Variant | aptazyme ON/OFF ratio
64 | U7A G9U U10A U11A C12G | 1.26
65 | U7A G9U U10A U11A C12A | 1.43
66 | U7A G9U U10A U11A C12U | 1.28
67 | U7A G9U U10A U11G C12U | 1.39
68 | U7A G9U U10A U11G C12A | 1.07
69 | U7A G9U U10A U11G C12G | 1.18
70 | U7A G9U U10A U11A C12U C13A | 1.3
71 | U7A G9U U10A U11A C12U C13U | 1.06
72 | U7A G9U U10A U11A C12U C13G | 1.15
73 | U7A G9U U10G U11G C12U C13U | 1.51
74 | U7A G9U U10G U11G C12U C13A | 1.26
75 | U7A G9U U10G U11G C12U C13G | 1.15
76 | U7A G9C U11G C12A | 1.19
77 | U7A G9C U11G C12U | 1.57
78 | U7A G9C U11G C12G | 1.36
79 | U7A G9U U10A U11G C12A C13G | 1.19
80 | U7A G9U U10A U11G C12A C13U | 1.1
81 | U7A G9U U10A U11G C12A C13A | 1.08
82 | U7A U8A C12A C13G | 1.12
83 | U7A U8A C12A C13U | 1.5
84 | U7A U8A C12A C13A | 1.22

From the RNAGym collection of RNA variant scans (doi:10.1021/acssynbio.7b00057)
